# Source: paper doi:10.1101/583088
# Biological target: 3-methylaspartate ammonia lyase from Citrobacter amalonaticus (Citrobacter amalonaticus) (UniProt O66145)
# Test: SEC
substance,measurement,value
3-methylaspartate ammonia lyase from Citrobacter amalonaticus (from UniProt O66145 1-413) (enzyme),stoichiometry N,2
